{
  "source": "patent US7078514",
  "about": "(dated 2006)",
  "binders": {"B1": {"name": "chicken GHRH polypeptide (asparagine^21), previously reported chicken GHRH (ligand)", "peptide": "HADGIFSKAYRKLLGQLSARNYLHSLMAKRVGGASSGLGDEAEPLS", "modifications": "not fully specified", "notes": "also called cGHRH(Asp^21); published polypeptide"}},
  "biological_target": "T1, recombinant chicken GHRH receptor (chicken)",
  "T1 construct": "Full-length cloned receptor; also called cGHRH receptor; cloned chicken GHRH receptor",
  "T1 chain": "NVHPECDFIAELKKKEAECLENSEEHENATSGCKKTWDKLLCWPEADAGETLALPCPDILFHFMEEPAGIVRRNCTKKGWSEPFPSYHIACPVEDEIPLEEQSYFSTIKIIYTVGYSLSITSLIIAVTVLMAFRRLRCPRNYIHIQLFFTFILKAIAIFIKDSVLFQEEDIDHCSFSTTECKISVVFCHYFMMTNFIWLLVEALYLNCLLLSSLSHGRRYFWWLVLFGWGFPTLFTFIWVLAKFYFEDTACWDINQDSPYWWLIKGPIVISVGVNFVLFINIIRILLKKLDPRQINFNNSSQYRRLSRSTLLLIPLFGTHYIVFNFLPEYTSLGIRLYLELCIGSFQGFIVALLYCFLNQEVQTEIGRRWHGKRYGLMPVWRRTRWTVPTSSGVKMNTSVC",
  "assay": "competition with labeled hGHRH at recombinant chicken GHRH receptor",
  "note": "No end group written: not given here.",
  "data": [
    {"binder": "B1", "values": [
      {"measurement": "binding result", "result": "no binding"}
    ]}
  ]
}
